Data: the Human Domainome abundance scans (Beltran et al. 2025)
± gives the uncertainty stated by the source.

B1: Tumor protein 63, residues 545 to 610; numbered along this chain, Q9H3D4 (parent)
chain: TDCSIVSFLARLGCSSCLDYFTTQGLTTIYQIEHYSMDDLASLKIPEQFRHAIWKGILDHRQLHEF
B2: Myocardin-related transcription factor A, residues 341 to 383; numbered along this chain, Q969V6 (parent)
chain: GALPANLDDMKVAELKQELKLRSLPVSGTKTELIERLRAYQDQ

Variants of: B1
Experiment: abundance fitness (aPCA) (normalised: wild type 0, dead -1); higher = more abundant; growth selection in yeast, the domain comes from the species named
Conditions: Homo sapiens

Row | Variant | abundance fitness
1 | D39H | -0.163 ± 0.049
2 | L63G | -0.016 ± 0.018
3 | I32M | -0.169 ± 0.032
4 | F21H | -0.975 ± 0.18
5 | L26Y | -0.149 ± 0.05
6 | S16H | -0.059 ± 0.036
7 | R50K | -0.067 ± 0.048
8 | E47I | -0.045 ± 0.036
9 | L43P | -0.564 ± 0.042
10 | S42K | 0 ± 0.043
11 | L12V | -0.047 ± 0.024
12 | S15F | -0.157 ± 0.029
13 | H60T | -0.027 ± 0.032
14 | R50D | -0.712 ± 0.074
15 | R11P | -0.133 ± 0.024
16 | D59I | -0.084 ± 0.034
17 | F49I | -0.168 ± 0.035
18 | D59T | -0.111 ± 0.04
19 | G56A | -0.075 ± 0.03
20 | R61S | -0.039 ± 0.028
21 | Q62I | -0.151 ± 0.042
22 | Q62L | -0.039 ± 0.027
23 | I32Q | -0.931 ± 0.095
24 | D38Y | -0.055 ± 0.086
25 | H51W | -0.058 ± 0.025
26 | R50F | -0.149 ± 0.07

Row | Variant | abundance fitness
27 | D2E | -0.079 ± 0.028
28 | S15A | -0.046 ± 0.026
29 | D38P | -0.105 ± 0.051
30 | Y30W | -0.06 ± 0.044
31 | G56I | -0.831 ± 0.12
32 | E33W | -0.046 ± 0.03
33 | A52E | -0.024 ± 0.029
34 | D39W | -0.554 ± 0.03
35 | Y30P | 0.007 ± 0.034
36 | I45E | -0.676 ± 0.06
37 | L12M | -0.05 ± 0.034
38 | E47M | -0.04 ± 0.05
39 | Q48H | -0.005 ± 0.057
40 | E47W | -0.08 ± 0.024
41 | R61P | -0.022 ± 0.039
42 | L18K | 0.061 ± 0.12
43 | L18Q | -0.002 ± 0.063
44 | C3L | -0.033 ± 0.02
45 | D2S | -0.101 ± 0.025
46 | I5M | -0.021 ± 0.027
47 | Y30G | 0 ± 0.027
48 | H60Y | -0.014 ± 0.037
49 | R11Y | -0.221 ± 0.05
50 | C17E | -0.377 ± 0.032
51 | Q48S | -0.038 ± 0.025
52 | G13F | -0.45 ± 0.05

Row | Variant | abundance fitness
53 | C17Y | -0.323 ± 0.031
54 | T22E | -0.014 ± 0.032
55 | L63M | 0.025 ± 0.032
56 | L43F | -0.245 ± 0.031
57 | Q24K | -0.018 ± 0.027
58 | H60G | -0.092 ± 0.044
59 | L63I | -0.034 ± 0.029
60 | D19L | -0.089 ± 0.019
61 | I29Y | -0.049 ± 0.063
62 | H51G | -0.023 ± 0.02
63 | T28C | -0.211 ± 0.028
64 | T1V | -0.058 ± 0.042
65 | R11E | -0.038 ± 0.026
66 | D39Y | -0.437 ± 0.042
67 | D39K | -0.093 ± 0.031
68 | D38L | -0.039 ± 0.034
69 | E33T | -0.047 ± 0.045
70 | I53W | -0.62 ± 0.081
71 | L12F | -0.149 ± 0.048
72 | F8K | -0.961 ± 0.19
73 | W54V | -0.078 ± 0.19
74 | E65I | -0.099 ± 0.096
75 | D59L | -0.074 ± 0.023
76 | S36E | -0.014 ± 0.036
77 | L43D | -0.503 ± 0.042
78 | K44F | -0.081 ± 0.031

Row | Variant | abundance fitness
79 | F21G | -0.986 ± 0.061
80 | M37C | -0.083 ± 0.039
81 | Y20N | -0.022 ± 0.033
82 | I53G | -0.979 ± 0.055
83 | L40F | -0.043 ± 0.048
84 | E33C | -0.05 ± 0.036
85 | Q31S | -0.093 ± 0.021
86 | S42C | -0.061 ± 0.035
87 | T27A | -0.105 ± 0.023
88 | E65H | -0.072 ± 0.087
89 | D39V | -0.265 ± 0.032
90 | S15R | -0.052 ± 0.023
91 | R50T | -0.056 ± 0.028
92 | R61M | -0.077 ± 0.028
93 | R50C | -0.052 ± 0.043
94 | E65D | 0.081 ± 0.12
95 | H51M | -0.009 ± 0.027
96 | F8I | -0.272 ± 0.019
97 | K44W | -0.154 ± 0.024
98 | I45D | -0.982 ± 0.093
99 | T28L | -0.084 ± 0.019
100 | H51L | -0.029 ± 0.024
101 | C14Y | -0.076 ± 0.049
102 | S36H | -0.13 ± 0.092

Variants of: B2
Experiment: as above
Conditions: Homo sapiens

Row | Variant | abundance fitness
103 | G1A | -0.918 ± 0.12
104 | G1C | -0.605 ± 0.17
105 | G1D | -0.587 ± 0.09
106 | G1E | -0.303 ± 0.12
107 | G1N | -0.205 ± 0.11
108 | G1Q | -0.306 ± 0.088
109 | G1R | -0.165 ± 0.16
110 | G1S | -0.438 ± 0.44
111 | G1V | -0.384 ± 0.17
112 | A2C | -0.077 ± 0.092
113 | A2D | 0.26 ± 0.12
114 | A2E | 0.136 ± 0.34
115 | A2F | 0.024 ± 0.15
116 | A2G | 0.035 ± 0.061
117 | A2K | 0.588 ± 0.2
118 | A2L | 0.208 ± 0.11
119 | A2M | 0.433 ± 0.09
120 | A2P | -0.041 ± 0.12
121 | A2Q | 0.34 ± 0.32
122 | A2R | 0.034 ± 0.12
123 | A2S | 0.209 ± 0.094
124 | A2T | 0.161 ± 0.16

Row | Variant | abundance fitness
125 | A2W | -0.145 ± 0.1
126 | L3A | -0.431 ± 0.061
127 | L3C | 0.016 ± 0.083
128 | L3D | 0.512 ± 0.15
129 | L3E | -0.019 ± 0.069
130 | L3F | 0.243 ± 0.084
131 | L3G | 0.028 ± 0.069
132 | L3H | 0.426 ± 0.1
133 | L3I | 0.144 ± 0.092
134 | L3K | -0.171 ± 0.083
135 | L3M | -0.022 ± 0.098
136 | L3N | 0.128 ± 0.12
137 | L3R | -0.021 ± 0.054
138 | L3S | -0.031 ± 0.12
139 | L3T | -0.598 ± 0.15
140 | L3V | 0.073 ± 0.078
141 | L3W | -0.122 ± 0.14
142 | L3Y | 0.502 ± 0.15
143 | P4A | 0.079 ± 0.059
144 | P4C | 0.211 ± 0.081
145 | P4D | 0.213 ± 0.066
146 | P4E | 0.349 ± 0.11

Row | Variant | abundance fitness
147 | P4F | -0.263 ± 0.24
148 | P4G | 0.217 ± 0.064
149 | P4H | 0.093 ± 0.1
150 | P4I | 0.301 ± 0.12
151 | P4K | 0.17 ± 0.12
152 | P4L | 0.322 ± 0.11
153 | P4M | 0.196 ± 0.15
154 | P4Q | 0.293 ± 0.2
155 | P4R | 0.219 ± 0.061
156 | P4S | 0.245 ± 0.065
157 | P4T | 0.243 ± 0.078
158 | P4V | 0.29 ± 0.098
159 | P4W | 0.057 ± 0.081
160 | P4Y | 0.29 ± 0.14
161 | A5E | 0.216 ± 0.089
162 | A5F | -0.012 ± 0.17
163 | A5G | 0.081 ± 0.059
164 | A5I | 0.249 ± 0.14
165 | A5K | 0.109 ± 0.097
166 | A5L | 0.045 ± 0.071
167 | A5M | 0.292 ± 0.07
